# Results reported in IntAct's records for PubMed 21358628.
# B1: DNA-directed RNA polymerase III subunit RPC3 (Homo sapiens), Q9BUI4 (parent)
# chain: MTQAEIKLCSLLLQEHFGEIVEKIGVHLIRTGSQPLRVIAHDTGTSLDQVKKALCVLVQHNLVSYQVHKRGVVEYEAQCSRVLRMLRYPRYIYTTKTLYSDTGELIVEELLLNGKLTMSAVVKKVADRLTETMEDGKTMDYAEVSNTFVRLADTHFVQRCPSVPTTENSDPGPPPPAPTLVINEKDMYLVPKLSLIGKGKRRRSSDEDAAGEPKAKRPKYTTDNKEPIPDDGIYWQANLDRFHQHFRDQAIVSAVANRMDQTSSEIVRTMLRMSEITTSSSAPFTQPLSSNEIFRSLPVGYNISKQVLDQYLTLLADDPLEFVGKSGDSGGGMYVINLHKALASLATATLESVVQERFGSRCARIFRLVLQKKHIEQKQVEDFAMIPAKEAKDMLYKMLSENFMSLQEIPKTPDHAPSRTFYLYTVNILSAARMLLHRCYKSIANLIERRQFETKENKRLLEKSQRVEAIIASMQATGAEEAQLQEIEEMITAPERQQLETLKRNVNKLDASEIQVDETIFLLESYIECTMKRQ
# partner: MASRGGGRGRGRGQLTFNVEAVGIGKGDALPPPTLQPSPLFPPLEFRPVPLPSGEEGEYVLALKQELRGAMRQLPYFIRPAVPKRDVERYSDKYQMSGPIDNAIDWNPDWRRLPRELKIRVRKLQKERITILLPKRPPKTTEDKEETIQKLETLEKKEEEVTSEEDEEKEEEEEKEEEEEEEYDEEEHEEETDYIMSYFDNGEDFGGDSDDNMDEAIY
# B2: DNA-directed RNA polymerase III subunit RPC3 (Homo sapiens), Q9BUI4 (parent)
# chain: B1 chain
# Variants of: B1
# Conditions: with rpc7l_human POLR3GL
row,effect of a mutation on the interaction,Variant
1,disrupting interaction,MTQAEIKLCSLLLQEHFGEIVEKIGVHLIRTGSQPLRVIAHDTGTSLDQVKKALCVLVQHNLVSYQVHKRGVVEYEAQCSRVLRMLRYPRYIYTTKTLYSDTGELIVEELLLNGKLTMSAVVKKVADRLTETMEDGKTMDYAEVSNTFVRLADTHFVQRCPSVPTTENSDPGPPPPAPTLVINEKDMYLVPKLSLIGKGKRRRSSDEDAAGEPKAKRPKYTTDNKEPIPDDGIYWQANLDRFHQHFRDQAIVSAVANRMDQTSSEIVRTMLRMSEITTSSSAPFTQPLSSNEIFRSLPVGYNISKQVLDQYKTLLADDPLEFVGKSGDSGGGMYVINLHKALASLATATLESVVQERFGSRCARIFRLVLQKKHIEQKQVEDFAMIPAKEAKDMLYKMLSENFMSLQEIPKTPDHAPSRTFYLYTVNILSAARMLLHRCYKSIANLIERRQFETKENKRLLEKSQRVEAIIASMQATGAEEAQLQEIEEMITAPERQQLETLKRNVNKLDASEIQVDETIFLLESYIECTMKRQ [L312K]

# Variants of: B2
# Conditions: with rpc7_human POLR3G
row,effect of a mutation on the interaction,Variant
1,disrupting interaction,MTQAEIKLCSLLLQEHFGEIVEKIGVHLIRTGSQPLRVIAHDTGTSLDQVKKALCVLVQHNLVSYQVHKRGVVEYEAQCSRVLRMLRYPRYIYTTKTLYSDTGELIVEELLLNGKLTMSAVVKKVADRLTETMEDGKTMDYAEVSNTFVRLADTHFVQRCPSVPTTENSDPGPPPPAPTLVINEKDMYLVPKLSLIGKGKRRRSSDEDAAGEPKAKRPKYTTDNKEPIPDDGIYWQANLDRFHQHFRDQAIVSAVANRMDQTSSEIVRTMLRMSEITTSSSAPFTQPLSSNEIFRSLPVGYNISKQVLDQYKTLLADDPLEFVGKSGDSGGGMYVINLHKALASLATATLESVVQERFGSRCARIFRLVLQKKHIEQKQVEDFAMIPAKEAKDMLYKMLSENFMSLQEIPKTPDHAPSRTFYLYTVNILSAARMLLHRCYKSIANLIERRQFETKENKRLLEKSQRVEAIIASMQATGAEEAQLQEIEEMITAPERQQLETLKRNVNKLDASEIQVDETIFLLESYIECTMKRQ [L312K]
